The term IC50 denotes the point on the concentration scale where inhibition reaches its midpoint. A high value points to weaker potency. Broadly, the EC50 is the midpoint of the concentration-response curve. A low value points to higher potency in that assay.

In test [1] the target is Inactivated Rabies Virus Vaccine (Rabipur®, Chiron Behring GmbH & Co.) (rabies virus).
In test [2] the target is CVS-11 rabies virus (rabies virus) (UniProt O92284). The test can be described thus: cell-based or functional assay.
UniProt O92284, sequence (O92284 20-524): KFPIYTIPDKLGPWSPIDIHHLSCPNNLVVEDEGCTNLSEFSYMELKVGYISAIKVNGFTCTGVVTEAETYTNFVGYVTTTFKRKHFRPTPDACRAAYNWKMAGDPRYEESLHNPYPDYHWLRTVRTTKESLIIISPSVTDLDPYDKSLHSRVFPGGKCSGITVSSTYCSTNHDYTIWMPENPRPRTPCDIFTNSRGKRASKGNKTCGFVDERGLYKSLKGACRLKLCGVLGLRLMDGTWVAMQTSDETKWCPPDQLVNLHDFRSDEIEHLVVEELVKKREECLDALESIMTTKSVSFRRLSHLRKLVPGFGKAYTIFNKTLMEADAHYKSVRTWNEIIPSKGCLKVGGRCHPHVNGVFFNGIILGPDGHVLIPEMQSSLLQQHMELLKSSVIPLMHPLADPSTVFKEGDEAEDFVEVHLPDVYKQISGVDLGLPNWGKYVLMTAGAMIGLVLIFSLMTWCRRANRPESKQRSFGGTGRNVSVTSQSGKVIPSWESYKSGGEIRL
The target of test [3] is Inactivated Rabies Virus Vaccine (Rabipur®, Chiron Behring GmbH & Co.) (rabies virus). The test can be described thus: ELISA, plate coated with 1/500-diluted Rabipur, anti-human IgG Fcγ-HRP detection.

B1: Ch2G11 (antibody, V domains shown)
VH: EVQLVESGGGLVKPGGSLILSCAASGFTFSGFAMSWVRQTPEKRLEWVATISSGGTYTYSPDSVMGRFTISRDNAKNTLYLQMSSLRSEDTAMYYCARRLRRNYYSMDYWGQGTSVTVSS
VL: DVVLTQAPLSLPVNIGDQASISCKSTKSLLNSDGFTYLDWYLQKPGQSPQLLIYLVSNRFSGVPDRFSGSGSGTDFTLKISRVEAEDLGIYFCFQSNYLPFTFGSGTKLEIKR
The molecule B1 came in with a concentration for half-maximal inhibition (IC50) in test [1] of 0.11 µg/mL. In test [2], this molecule registered a Neutralization potency (IU/mg), FAVN of 8310 IU/mg and a Neutralization potency (IU/mg), RFFIT of 1260 IU/mg.

B2: Hu1A9-1 (antibody, V domains shown)
VH: QVQLVQSGAEVKKPGASVKVSCKASGYSFTDYIMLWVRQAPGQRLEWIGDIYPYYGSTSYNLKFKGKATLTVDTSASTAYMELSSLRSEDTAVYYCARQGGDGNYVLFDYWGQGTLVTVSS
VL: DIQMTQSPSSLSASVGDRVTITCKASQNVGTTVAWYQQKPGKAPKALIYSASYRYSGVPSRFSGSGSGTDFTLTISSLQPEDFATYYCQQYNSYPFTFGQGTKLEIKR
The molecule B2 gave a concentration for a half-maximal effect (EC50) in test [3] of 0.025 µg/mL.

B3: Hu1A9-2 (antibody, V domains shown)
VH: QVQLVQSGAEVKKPGASVKVSCKASGYSFTDYIMLWVRQAPGQRLEWIGDIYPYYGSTSYNLKFKGKATLTVDTSASTAYMELSSLRSEDTAVYYCARQGGDGNYVLFDYWGQGTLVTVSS
VL: DIQMTQSPSSLSASVGDRVTITCKASQNVGTTVAWYQQKPGKAPKVLIYSASYRYSGVPSRFSGSGSGTDFTLTISSLQPEDFATYYCQQYNSYPFTFGQGTKLEIKR
B3 showed an EC50 in test [3] of 0.016 µg/mL.

B4: Ch1A9 (antibody, V domains shown)
VH: EIQLQQTGPELVKPGASVKISCKASGYSFTDYIMLWVKQSHGKSLEWIGDIYPYYGSTSYNLKFKGKATLTVDKSSSTAYMQLNSLTSEDSAVYYCARQGGDGNYVLFDYWGQGTTLTVSS
VL: DIVMTQSQKFMSTSVGDRVSVTCKASQNVGTTVAWYQQKPGQSPKALIYSASYRYSGVPDRFTGSGSGTDFTLTISNVQSEDLAEYFCQQYNSYPFTFGSGTKLEIKR
In turn, B4 yielded an EC50 in test [3] of 0.052 µg/mL. Moreover, in test [2], the Neutralization potency (IU/mg), FAVN was 533 IU/mg and the Neutralization potency (IU/mg), RFFIT was found to be 1260 IU/mg.
